Measurements: the DeepSol protein solubility set

assay: soluble on expression in E. coli; label from the status in PepcDB or PDB records

Sequence | soluble on expression in E. coli
MRILSLSFSNLNSLKGEWKIDFSASPFAENGLFAITGPTGAGKTTILDAICLALYHKTPRLGGISTSSNEIMTRGTAECSAEVEFEVKGKAYRAFWSQRRSRGKVDGNLQAATVELAEVDSEKVLATQVKKKDELINTITGLDFSRFTKSMMLSQGQFAAFLNADANDRAGLLEELTGTEIYGQISEKVHEHYTASKQKLAELKAKAEGVELLSEEDKQALIDEQTELQANQKQQQAQL | not soluble
MFVMIIQGQVLGGYPRSRYVRRALRRLEQGEISAVELMGVLNQASSAVIGAQVSQGFPYVVDGMLDWHDIFRPFAEAWRNVTPTGLLRYFDNNFFYRIPLFTGEPEPTDPVLAPRVLSYSQVAEPAKLKVVVPGPVTFTLMSRNESGISDEELAEAIANLLADEVEKAVKAGAGFVQVDEPILSEPKATRDHALLAAELAGVIASRSGSAETMLSVYFYPPKPEVYEALLEARVDYLMVDLVAAGSKGLEVITGKGAGEGLALGVIDARSIYSESLEKVEAPVRRIVESVKPEKIILTTSTWLDLIPYRYALRKTALLGRYTYALAEKLGAQIAVAGGEMAGDPLEHHHHHH | not soluble
MAENKQASEGLAEDLIRSMVQTASIELHLKTLVEKRQSEMDNGLIDTNDFNRVNEQIDVLKNLKEELFEVTEQRRQDMRTLFDLFEGKGDKEQWCIVKHAAMAMYTAFEAWQASDNDRLLYQICIEKNAYFIKKITQFTGVPITECASCFSDMMKGAIDDEG | not soluble
SEKVNQTFFLSHGSPTLSIDDSLEARQFFKSWTQKVLPQKPKSILVISAHWDTKFPSVNTVLRNNTIHDFSGFPDPMYKLKYEAPGAIELGKRVKELLMKEGGMKRVDEDTKRGLDHGAWVPLMLMYPEADIPICQLSVQSNQNGSYHYNMGKALASLKDEGVLIIGSGSATHNLRKLDFNITDGSPVPWALEFDHWLRDSLLQGRYGDVNEWEEKAPNAKMAHPWPEHLYPLHVVMGAAGGDAKAEQIHTSWQLGTLSYSSYSFTSSL | soluble
MFEEGSEDEVTLMGCTQDEVKPKVGLSQKKWFPKEDIVLVRAWLNTNKDHVIGNDQQCQSFLKQIASYVAISPQLDYLPKREHAKCKQRWSKVNKSVTKFVGCYKTATTHKTSGQSEDDVMKLAYEIYYNDTKKKFNLEHTWRKLRYDQKWCEAATIKGNKNAKRKCVDGY | soluble
KAPNLYMTDTTGTYRYLYDVQAKYTILFFWDSQCGHCQQETPKLYDWWLKNRAKGIQVYAANIERKDEEWLKFIRSKKIGGWLNVRDSKNHTDFKITYDIYATPVLYVLDKNKVIIAKRIGYENLDDFLVQYEKSLKTK | not soluble
MGHHHHHHSHLSPDRRASLLTSLMLVKRDYRYDRVLFWGRILGLVADYYIAQGLSEDQLAPRKTLYSLNCTEWSLLPPATEEMVAQSSVVKGRFMGDPSYEYEHTELQKVNEGEKVFEEEIVVQIKEETRLVSVIDQIDKAVAIIPRGALFKTPFGPTHVNRTFEGLSLSEAKKLSSYFHFREPVELKNKTLLEKADLDPSLDFMDSLEHDIPKGSWSIQMERGNALVVLRSLLWPGLTFYHAPRTKNYGYVYVGTGEKNMDLPFML | not soluble
MQLLTEKDRPEEEKREETWRRLKRDIASSANTIHEIDTGKARGYNRALFVSSIFNKVSTFAGHGDVEIVQKAIDFISEYNAGIKKPVITPRHRFFQLAETASRMRDKLKETQELENREVTFEGGILVWNYQESRLQVFFNKIPEESKRRELKSSGFHWSPRNRAWQRQLNPNAVSAAKRILNL | not soluble
MSDPYMPLTSVRSGAGFEAAKGVHGLTVQIANVYFIQLPSEPHSFVLIDAGMPQSAGVIVNEAKQRFGEGFQLKAIILTHGHFDHIGAIEEILEHWDVPVYIHSREMPYVTGKEDYPPARPDSKSGLVAKLSPLFPRHSIDISSHVQALPEDGSVPFLDEWMWIATPGHTPGHISLFRDDGRVLVAGDAVITVEQEKMADVLIQKQELHGPPAYFTPDTETAAESILKLAGLEPEALLTGHGIPMTGKNFRSDLTELANRLSSILEHHHHHH | soluble
GKSDKIIPIAENKEAKAKYDILETYEAGIVLKGSEVKSLREKGTVSFKDSFVRIENGEAWLYNLYIAPYKHATIENHDPLRKRKLLLHKREIMRLYGKVQEKGYTIIPLKLYWKNNKVKVLIALAKGKKLYDRRRELKEKAMKRELEREFKGKIHL | soluble
MGHHHHHHSHMQQAPVVLSTLDKLLNWGRSNSLWPLTYGLACCAIEMMATGGSRFDFDRFGTIFRASPRQSDVMIIAGTLTKKHAEFMRRLYDQMPEPKWVISMGSCANTGGMFNTYATVQGADRVVPVDIYLPGCAPRPETLQYALMVLQDKIRRSKAIKQDAPKRLV | not soluble
MQNNSYGYAVSVRVGGKEHRHWERYDIDSDFLIPADSFDFVIGRLGPEAAIPDLSGESCEVVIDGQIVMTGIIGSQRHGKSKGSRELSLSGRDLAGFLVDCSAPQLNVKGMTVLDAAKKLAAPWPQIKAVVLKAENNPALGKIDIEPGETVWQALTHIANSVGLHPWLEPDGTLVVGGADYSSPPVATLCWSRTDSRCNIERMDIEWDTDNRFSEVTFLAQSHGRSGDSAKHDLKWVYKDPTMTLHRPKTVVVSDADNLAALQKQAKKQLADWRLEGFTLTITVGGHKTRDGVLWQPGLRVHVIDDEHGIDAVFFLMGRRFMLSRMDGTQTELRLKEDGIWTPDAYPK | not soluble
MRVKTGVVRRRRHKKVLKLARGFYSGRRKHFRKAKEQLERSMYYAFRDRKQKKREFRSLWVVRINAACRMHNTSYSRFMHALKVANIELDRKVLADMAMNDMQAFTSVLESVKEHLLEHHHHHH | soluble
MSLNLETPSQENLNFMLTEITTKLKMVNVGVFENLELDSVDYNALIDIYQLIKRKSNFSPREMQLFAEELRRIRKEGHHHHHH | soluble
MDLTKLTFESVFGGSDVPMKPSRSEDNKTPRNRTDLEMFLKKTPLMVLEEAAKAVYQKTPTWGTVELPEGFEMTLILNEITVKGQATSKKAARQKAAVEYLRKVVEKGKHEIFFIPGTTKEEALSNIDQISDKAEELKRSTSDAVQDNDNDDSIPTSAEFPPGISPTENWVGKLQEKSQKSKLQAPIYEDSKNERTERFLVICTMCNQKTRGIRSKKKDAKNLAAWLMWKALEDGIESLESYDMVDVIENLEEAEHLLEIQDQASKIKDKHSALIDILSDKKRFSDYSMDFNVLSVSTMGIHQVLLEISFRRLVSPDPDDLEMGAEHTQTEEIMKATAEKEKLRKKNMPDSGPLVFAGHGSSAEEAKQCACKSAIIHFNTYDFTD | not soluble
MSFPLIFERSRKGRRGLKLVKAVPKAEDLIPKEHLREVPPRLPEVDELTLVRHYTGLSRRQVGVDTTFYPLGSCTMKYNPKLHEEAARLFADLHPYQDPRTAQGALRLMWELGEYLKALTGMDAITLEPAAGAHGELTGILIIRAYHEDRGEGRTRRVVLVPDSAHGSNPATASMAGYQVREIPSGPEGEVDLEALKRELGPHVAALMLTNPNTLGLFERRILEISRLCKEAGVQLYYDGANLNAIMGWARPGDMGFDVVHLNLHKTFTVPHGGGGPGSGPVGVKAHLAPYLPVPLVERGEEGFYLDFDRPKSIGRVRSFYGNFLALVRAWAYIRTLGLEGLKKAAALAVLNARYLKELLKEKGYRVPYDGPSMHEFVAQPPEGFRALDLAKGLLELGFHPPTVYFPLIVKEALMVEPTETEAKETLEAFAEAMGALLKKPKEWLENAPYSTPVRRLDELRANKHPKLTYFDEG | soluble
MQPTSITVASYNLRNANGGDSINGNGWGQRYPVIAQIVQYHDFDIFGTQECFIHQLKDMKEALPGYDYIGVGRDDGKEKGEHSAIFYRTDKFDVIEKGDFWLSETPDVPSKGWDAVLPRICSWGHFKCKDTGFEFLFFNLHMDHIGKKARVESAFLVQDKMKELGKGKELPAILTGDFNVDQTHQSYDAFVSKGVLCDSYEKAGFRYAINGTFNDFDPNSFTESRIDHIFVSPSFQVKRYGVLTDTYRSIVGKGEKKQANDCPEEIDIKTYQARTPSDHFPVKVELEFDQRQQKLEHHHHHH | soluble
MVATEKKFVLTHIFKNVSKMKDSDFLYSPEENLFNVPWFMLIARKDDHFGVFLHCQKINEAGPTWSVDTQNTIRVKTLSASKVSSEIFKHKFEKNEGWGYFKFISWDTLTNDYLIDDCIIVEITVKITKMTGIPKKVLRSFDKSAEEFSDVVLEVGGKKFYVLKKFLASHSTYFNALLLGKPEMSEVTIQDTSSVDFQNLLEVLYGEPAIDEDTIDGILTLAHKFTMPLPIQKCEEFLIEKSEKSVKEKLKLVKKYQLKSLKTHCLSKINTPYGINALMPFDHNDMDPEVVMALLKKSLATDEFYLDCIMRFTVICLIFITVGLII | not soluble
MAHHHHHHMSSESYAIGQEELVYDRMFRVMRTVGEMMRDRKYQVPSSIIPETVGQFCEQYVDREGRRIYRERMTVPCERVGGTHRSRAMVFFASELGMEGMKGYCQTAMDANCERVIIVTHGKVNATVKRYVDCINRSGTGQKVQLFDEDDLVVNITHHELVPKHTQLEDEEVKEMLEAHSLELNMLPRILSTDPVAAYLGLERGRVVRIERKSVSAGFYVTYRQVV | not soluble
MEELQDDYEDMMEENLEQEEYEDPDIPESQMEEPAAHDTEATATDYHTTSHPGTHKVYVELQELVMDEKNQELRWMEAARWVQLEENLGENGAWGRPHLSHLTFWSLLELRRVFTKGTVLLDLQETSLAGVANQLLDRFIFEDQIRPQDREELLRALLLKHSHAGELEALGGVKPAVLTRSGDPSQPLLPQHSSLETQLFCEQGDGGTEGHSPSGILEKIPPDSEATLVLVGRADFLEQPVLGFVRLQEAAELEAVELPVPIRFLFVLLGPEAPHIDYTQLGRAAATLMSERVFRIDAYMAQSRGELLHSLEGFLDCSLVLPPTDAPSEQALLSLVPVQRELLRRRYQSSPAKPDSSFYKGLDLNGGPDDPLQQTGQLF | soluble
MGSDKIHHHHHHLNLIWTNLRVPVEEDERQLPLMIARKLKVSQQSISNLRILRRSVDARKKPQLLFSYTLGFSLDIPYKEVNRVLHRVADLKPEPQIMPRPFMKPEKSLKHRPIVVGAGPAGYFAALTLAKGGYAPLVLEQGDDVETRSLKVENFWRTGQLDTESNVQFGEGGAGTFSDGKLTTRIADPRITEVLETFVEQGAPSEILFLAKAHIGTDILKIVTQRLREKIQSLGGEVRFRAKLTGLRHQNGKLVGVEVNHQEVVPAEAVILAIGHSARETYRLLLAQGVHLEQKAFAIGLRIEHPQKLINTSQYGVEFHPKLGPADYQLTYQDTTTGRGAYAFCMCPGGKVVAAASDLERLVTNGMSEYRRDTGIANSALVVTVGKGDFQREHPLAGVEFQEYWEHQAFLAGDRDYKAPAQSVRDFLAKRVTGDFPLPASYTPGIQPVELHRVLPQAVGDVLDRALLSFERKIQGFAGEMGTLTGIETRTSAPVRITRDKMGEALHIQGLFPAGEGAGYAGGIMSAAVDGIRSAEGIMAQYNPAD | not soluble
MFSALRHRTAALALGVCFILPVHASSPKPGDFANTQARHIATFFPGRMTGTPAEMLSADYIRQQFQQMGYRSDIRTFNSRYIYTARDNRKNWHNVTGSTVIAAHEGKAPQQIIIMAHLDTYAPQSDADADANLGGLTLQGMDDNAAGLGVMLELAERLKNTPTEYGIRFVATSGEEEGKLGAENLLKRMSDTEKKNTLLVINLDNLIVGDKLYFNSGVKTPEAVRKLTRDRALAIARSHGIAATTNPGLNKNYPKGTGCCNDAEIFDKAGIAVLSVEATNWNLGNKDGYQQRAKTAAFPAGNSWHDVRLDNQQHIDKALPGRIERRCRDVMRIMLPLVKELAKAS | not soluble
